B1: CPEB3 Ribozyme (parent)
chain: UAACAGGGGGCCACAGCAGAAGCGUUCACGUCGCAGCCCCUGUCAGAUUCUGGUGAAUCUGCGAAUUCUGCUGUAUAUCUC

Variants of: B1
Test: self-cleavage, relative activity (ratio to wild type); higher = more cleavage; in vitro, sequencing
Method in brief: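 Libraries of CPEB3 self-cleaving ribozyme mutants came from rounds of error-prone PCR and carried barcodes, which DNA sequencing matched to variants. In vitro transcription used T7 RNA polymerase at 37°C for 5 hours, with a further 15 min in DNase I before EDTA stopped the reaction; the ribozymes cleaved during both steps. The RNA was reverse transcribed with template switching and sequenced on Illumina. Relative activity is the cleaved/total read fraction of a variant divided by that of the unmutated ribozyme, averaged over three batches with at least 5 reads.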

Row | Variant | self-cleavage
1 | UAACAGGGGGCCUCAGCAGAAGCGUUCACGUCGCAGCCCCUGUCAGAUUCUGGUGUAUCUGCGAAUUCUGCUGUAUAUCUC [A13U A56U] | 0.93
2 | UAACAGGGGGCCUCAGCAGAAGCGUUCACGUCGCAGCCCCUGUCAGAUUCUGGUGGAUCUGCGAAUUCUGCUGUAUAUCUC [A13U A56G] | 1.07
3 | UAACAGGGGGCCUCAGCAGAAGCGUUCACGUCGUAGCCCCUGUCAGAUUCUGGUGAAUCUGCGAAUUCUGCUGUAUAUCUC [A13U C34U] | 0.43
4 | UAACAGGGGGCCUCAGCAGAAGCGUUCACGUGGCAGCCCCUGUCAGAUUCUGGUGAAUCUGCGAAUUCUGCUGUAUAUCUC [A13U C32G] | 0.45
5 | UAACAGGGGGCCUCAGCAGAAGCGUUCACGUAGCAGCCCCUGUCAGAUUCUGGUGAAUCUGCGAAUUCUGCUGUAUAUCUC [A13U C32A] | 0.2
6 | UAACAGGGGGCCUCAGCAGAAGCGUUCACGUUGCAGCCCCUGUCAGAUUCUGGUGAAUCUGCGAAUUCUGCUGUAUAUCUC [A13U C32U] | 0.25
7 | UAACAGGGGGCCUCAGCAGAAGGGUUCACGUCGCAGCCCCUGUCAGAUUCUGGUGAAUCUGCGAAUUCUGCUGUAUAUCUC [A13U C23G] | 0.17
8 | UAACAGGGGGCCUCAGCAGAAGUGUUCACGUCGCAGCCCCUGUCAGAUUCUGGUGAAUCUGCGAAUUCUGCUGUAUAUCUC [A13U C23U] | 0.15
9 | UAACAGGGGGCCUCAGCAGAAGAGUUCACGUCGCAGCCCCUGUCAGAUUCUGGUGAAUCUGCGAAUUCUGCUGUAUAUCUC [A13U C23A] | 0.33
10 | UAACAGGGGGCCUCAGCAGAAGCGUUUACGUCGCAGCCCCUGUCAGAUUCUGGUGAAUCUGCGAAUUCUGCUGUAUAUCUC [A13U C27U] | 0.24
11 | UAACAGGGGGCCUCAGCAGAAGCGUUAACGUCGCAGCCCCUGUCAGAUUCUGGUGAAUCUGCGAAUUCUGCUGUAUAUCUC [A13U C27A] | 0.17
12 | UAACAGGGGGCCUCAGGAGAAGCGUUCACGUCGCAGCCCCUGUCAGAUUCUGGUGAAUCUGCGAAUUCUGCUGUAUAUCUC [A13U C17G] | 0.48
13 | UAACAGGGGGCCUCAGUAGAAGCGUUCACGUCGCAGCCCCUGUCAGAUUCUGGUGAAUCUGCGAAUUCUGCUGUAUAUCUC [A13U C17U] | 0.92
14 | UAACAGGGGGCCUCAGCAGAAGCGUUCACGUCGCAGCCCCUGUCAGAUUCUGGUGAGUCUGCGAAUUCUGCUGUAUAUCUC [A13U A57G] | 1.07
15 | UAACAGGGGGCCUCAGCAGAAGCGUUCACGUCGCAGCCCCUGUCAGAUUCUGGUGAUUCUGCGAAUUCUGCUGUAUAUCUC [A13U A57U] | 1.04
16 | UAACAGGGGGCCUCAGCAGAAGCGUUCACGUCGCAGCCCCUGUCAGAUUCUGGUGACUCUGCGAAUUCUGCUGUAUAUCUC [A13U A57C] | 0.7
17 | UAACAGGGGGCCUCAGCAGAAGCGUUCACGUCGCAGCCCCUGUCAGGUUCUGGUGAAUCUGCGAAUUCUGCUGUAUAUCUC [A13U A47G] | 1.01

Row | Variant | self-cleavage
18 | UAACAGGGGGCCUCAGCAGAAGCGUUCACGUCGCAGCCCCUGUCAGCUUCUGGUGAAUCUGCGAAUUCUGCUGUAUAUCUC [A13U A47C] | 0.76
19 | UAACAGGGGGCCUCAGCAGAAGCGUUCACGUCGCAGCCCCUGUCAGUUUCUGGUGAAUCUGCGAAUUCUGCUGUAUAUCUC [A13U A47U] | 0.92
20 | UAACAGGGGGCCUCAGCAGAAGCGUUCACGUCGCAGCCCCUGUCAGAUUCUGGUGAAUCUGCGACUUCUGCUGUAUAUCUC [A13U A65C] | 0.17
21 | UAACAGGGGGCCUCAGCAGAAGCGUUCACGUCGCAGCCCCUGUCAGAUUCUGGUGAAUCUGCGAGUUCUGCUGUAUAUCUC [A13U A65G] | 0.61
22 | UAACAGGGGGCCUCAGCAGAAGCGUUCACGUCGCAGUCCCUGUCAGAUUCUGGUGAAUCUGCGAAUUCUGCUGUAUAUCUC [A13U C37U] | 1.09
23 | UAACAGGGGGCCUCAGCAGAAGCGUUCACGUCGCAGCACCUGUCAGAUUCUGGUGAAUCUGCGAAUUCUGCUGUAUAUCUC [A13U C38A] | 0.12
24 | UAACAGGGGGCCUCAGCAGAAGCGUUCACGUCGCAGCGCCUGUCAGAUUCUGGUGAAUCUGCGAAUUCUGCUGUAUAUCUC [A13U C38G] | 0.41
25 | UAACAGGGGGCCUCAGCAGAAGCGUUCACGUCGCAGCUCCUGUCAGAUUCUGGUGAAUCUGCGAAUUCUGCUGUAUAUCUC [A13U C38U] | 0.89
26 | UAACAGGGGGCCUUAGCAGAAGCGUUCACGUCGCAGCCCCUGUCAGAUUCUGGUGAAUCUGCGAAUUCUGCUGUAUAUCUC [A13U C14U] | 1.26
27 | UAACAGGGGGCCUCAGCAGAAGCGUUCACGUCGCAGCCCCUGUCAGAUUCUGGUGAAUCUGCGAAUUCUGCUGUAUGUCUC [A13U A77G] | 1.03
28 | UAACAGGGGGCCUCAGCAGAAGCGUUCACGUCGCAGCCCCUGUCAGAUUCUGGUGAAUCUGCGAAUUCUGCUGUAUUUCUC [A13U A77U] | 1.22
29 | UAACAGGGGGCCUCAGCAGAAGCGUUCACGUCGCAGCCCCUGUCAGAUUCUGGUGAAUCUGCGUAUUCUGCUGUAUAUCUC [A13U A64U] | 0.47
30 | UAACAGGGGGCCUCAGCAGAAGCGUUCACGUCGCAGCCCCUGUCAGAUUCUGGUGAAUCUGCGGAUUCUGCUGUAUAUCUC [A13U A64G] | 1.09
31 | UAACAGGGGGCCUCAGCAGAAGCGUUCACGUCGCAGCCCCUGUCAGAUUCUGGUGAAUCUGCGCAUUCUGCUGUAUAUCUC [A13U A64C] | 0.27
32 | UAACAGGGGGCCUCAGCAGAAGCGUUCACGUCGCAGCCCCUGUCAGAUUCUGGUGAAUCUGCGAAUUCUGCUGUGUAUCUC [A13U A75G] | 1.25
33 | UAACAGGGGGCCUCAGCAGAAGCGUUCACGUCGCAGCCCCUGUCAGAUUCUGGUGAAUCUGCGAAUUCUGCUGUUUAUCUC [A13U A75U] | 1.28
34 | UAACAGGGGGCCUCAGCAGAAGCGUUCAUGUCGCAGCCCCUGUCAGAUUCUGGUGAAUCUGCGAAUUCUGCUGUAUAUCUC [A13U C29U] | 0.58

Source: the RNAGym collection of RNA variant scans (doi:10.1093/nar/gkz1192)
